The RNAGym collection of RNA variant scans (doi:10.1021/acssynbio.7b00057)

B1: Pistol ribozyme (parent)
chain: GGGUCGUUGUUCCAUAAUCGCGUGGAUAUGGCACGCAAGUUUCUACCGGGCACCGUAAAUGUCCGACUGGAGCCGUUCGGGCGGCUAUAAACAGACCUCAGGCCCGAAGCGUGGCGGCACCUGCCGCCGGUGGUAAAAAAGAUCGGAAGAGCACACGUCU

Variants of: B1
Test: aptazyme ON/OFF ratio, guanine; higher = stronger switching; co-transcriptional cleavage with and without guanine

Row | Variant | aptazyme ON/OFF ratio
1 | U7A U8G G9U U10A C12U C13A | 1.32
2 | U7A U8G G9U U10A C12U C13U | 1.31
3 | U7A U8G G9U U10A C12U C13G | 1.36
4 | U7A U8G U10A U11C C12G C13G | 1.26
5 | U7A U8G U10A U11C C12G C13U | 1.21
6 | U7A U8G U10A U11C C12G C13A | 1.56
7 | U7A U8G G9C U11G C12U C13G | 1.41
8 | U7A U8G G9C U11G C12U C13U | 1.4
9 | U7A U8G G9C U11G C12U C13A | 1.44
10 | U7A U8G G9U U11A C12A C13A | 1.53
11 | U7A U8G G9U U11A C12A C13U | 1.25
12 | U7A U8G G9U U11A C12A C13G | 1.38
13 | U7A U8G U10A U11C C12A | 1.49
14 | U7A U8G U10A U11C C12U | 1.29
15 | U7A U8G U10A U11C C12G | 1.15
16 | U7A U8G G9U U10C U11G | 1.71
17 | U7A U8G G9U U10C U11A | 3.38
18 | U7A U8G G9U U10C U11C | 1.15
19 | U7A U8G G9U U10G U11C | 1.03
20 | U7A U8G G9U U10G U11A | 1.16
21 | U7A U8G G9U U10G U11G | 1.38
22 | U7A U8G G9U U10G U11C C12A C13G | 1.13
23 | U7A U8G G9U U10G U11C C12A C13A | 1.14
24 | U7A U8G G9U U10G U11C C12A C13U | 1.16

Row | Variant | aptazyme ON/OFF ratio
25 | U7A U8G G9U U10A U11G C12A C13G | 1.12
26 | U7A U8G G9U U10A U11G C12A C13U | 1.19
27 | U7A U8G G9U U10A U11G C12A C13A | 1.11
28 | U7A U8G G9U U10A U11C C12A C13U | 1.37
29 | U7A U8G G9U U10A U11C C12A C13A | 1.25
30 | U7A U8G G9U U10A U11C C12A C13G | 1.2
31 | U7A U8G G9U U10C U11G C12G C13U | 1.18
32 | U7A U8G G9U U10C U11G C12G C13A | 1.36
33 | U7A U8G G9U U10C U11G C12G C13G | 1.26
34 | U7A U8G G9U U10A U11G C13G | 1.12
35 | U7A U8G G9U U10A U11G C13U | 1.37
36 | U7A U8G G9U U10A U11G C13A | 1.14
37 | U7A U8G G9U U10C U11C C12G | 1.37
38 | U7A U8G G9U U10C U11C C12U | 1.36
39 | U7A U8G G9U U10C U11C C12A | 1.3
40 | U7A U8G G9U U10G U11C C12A | 1.19
41 | U7A U8G G9U U10G U11C C12G | 1.16
42 | U7A U8G G9U U10G U11C C12U | 1.04
43 | U7A U8G G9U U10A U11A C12U C13G | 1.24
44 | U7A U8G G9U U10A U11A C12U C13A | 1.26
45 | U7A U8G G9U U10A U11A C12U C13U | 1.2
46 | U7A U8G G9U U11C C12U C13G | 1.15
47 | U7A U8G G9U U11C C12U C13A | 1.17
48 | U7A U8G G9U U11C C12U C13U | 1.07

Row | Variant | aptazyme ON/OFF ratio
49 | U7A U8G G9U C12A | 1.53
50 | U7A U8G G9U C12G | 1.64
51 | U7A U8G G9U C12U | 1.62
52 | U7A U8G U10A U11A | 2.54
53 | U7A U8G U10A U11C | 1.11
54 | U7A U8G U10A U11G | 1.95
55 | U7A U8G G9U U10G U11G C12U C13U | 1.21
56 | U7A U8G G9U U10G U11G C12U C13G | 1.3
57 | U7A U8G G9U U10G U11G C12U C13A | 1.38
58 | U7A U8G G9U U10A U11A C12A C13U | 1.42
59 | U7A U8G G9U U10A U11A C12A C13G | 1.25
60 | U7A U8G G9U U10A U11A C12A C13A | 1.24
61 | U7A U8G U10A U11G C12A C13G | 1.21
62 | U7A U8G U10A U11G C12A C13A | 1.28
63 | U7A U8G U10A U11G C12A C13U | 1.08
64 | U7A U8G G9U U10G C12U C13A | 1.49
65 | U7A U8G G9U U10G C12U C13U | 1.21
66 | U7A U8G G9U U10G C12U C13G | 1.24
67 | U7A U8G G9U U10C U11A C12A C13G | 1.37
68 | U7A U8G G9U U10C U11A C12A C13U | 1.47
69 | U7A U8G G9U U10C U11A C12A C13A | 1.26
70 | U7A U8G U10A | 2.44
71 | U7A U8G U10C | 1.75
72 | U7A U8G G9U U10A U11C C13A | 1.02

Row | Variant | aptazyme ON/OFF ratio
73 | U7A U8G G9U U10A U11C C13G | 1.09
74 | U7A U8G G9U U10A U11C C13U | 0.998
75 | U7A U8G G9U C12U C13U | 1.26
76 | U7A U8G G9U C12U C13A | 1.64
77 | U7A U8G G9U C12U C13G | 1.17
78 | U7A U8G G9U U10G U11C C12G C13U | 1.22
79 | U7A U8G G9U U10G U11C C12G C13G | 1.13
80 | U7A U8G G9U U10G U11C C12G C13A | 1.11
81 | U7A U8G G9U U10A C13G | 1.12
82 | U7A U8G G9U U10A C13U | 1.23
83 | U7A U8G G9U U10A C13A | 1.36
84 | U7A U8G G9U U10G C12U | 1.28
85 | U7A U8G G9U U10G C12G | 1.15
86 | U7A U8G G9U U10G C12A | 1.21
87 | U7A U8G G9U U10A U11A C12G C13U | 1.22
88 | U7A U8G G9U U10A U11A C12G C13A | 1.36
89 | U7A U8G G9U U10A U11A C12G C13G | 1.28
90 | U7A U8G G9U U10C C12G | 1.24
91 | U7A U8G G9U U10C C12U | 1.66
92 | U7A U8G G9U U10C C12A | 1.41
93 | U7A U8G U10A U11G C12U | 1.12
94 | U7A U8G U10A U11G C12A | 1.43
95 | U7A U8G U10A U11G C12G | 1.32
96 | U7A U8G U10A U11G C12U C13A | 1.15

Row | Variant | aptazyme ON/OFF ratio
97 | U7A U8G U10A U11G C12U C13G | 1.21
98 | U7A U8G U10A U11G C12U C13U | 1.32
99 | U7A U8G G9U U10C C12U C13U | 1.31
100 | U7A U8G G9U U10C C12U C13A | 1.34
101 | U7A U8G G9U U10C C12U C13G | 1.54
102 | U7A U8G G9U U10A C12G C13U | 1.36
103 | U7A U8G G9U U10A C12G C13G | 1.47
104 | U7A U8G G9U U10A C12G C13A | 1.09
105 | U7A U8G G9U U10G U11C C12U C13G | 1.47
106 | U7A U8G G9U U10G U11C C12U C13A | 1.1
107 | U7A U8G G9U U10G U11C C12U C13U | 1.05
108 | U7A U8G G9U U11G C12G C13U | 1.22
109 | U7A U8G G9U U11G C12G C13A | 1.22
110 | U7A U8G G9U U11G C12G C13G | 1.19
111 | U7A U8G G9U U10A U11C | 1.06
112 | U7A U8G G9U U10A U11G | 2.03
113 | U7A U8G G9U U10A U11A | 2.58
114 | U7A U8G U10A U11G C13U | 1.29
115 | U7A U8G U10A U11G C13A | 1.29
116 | U7A U8G U10A U11G C13G | 1.23
117 | U7A U8G U10A U11A C12A C13G | 1.38
118 | U7A U8G U10A U11A C12A C13A | 1.34
119 | U7A U8G U10A U11A C12A C13U | 1.12
120 | U7A U8G U10A U11A C13A | 1.28

Row | Variant | aptazyme ON/OFF ratio
121 | U7A U8G U10A U11A C13G | 1.38
122 | U7A U8G U10A U11A C13U | 1.1
123 | U7A U8G U10A C12U C13G | 1.25
124 | U7A U8G U10A C12U C13U | 1.42
125 | U7A U8G U10A C12U C13A | 1.32
126 | U7A U8G G9U U11G C12U C13U | 1.29
127 | U7A U8G G9U U11G C12U C13A | 1.18
128 | U7A U8G G9U U11G C12U C13G | 1.29
129 | U7A U8G G9U U10G U11A C12A C13G | 1.39
130 | U7A U8G G9U U10G U11A C12A C13U | 1.48
131 | U7A U8G G9U U10G U11A C12A C13A | 1.16
132 | U7A U8G G9U U11C | 1.45
133 | U7A U8G G9U U11A | 2.05
134 | U7A U8G G9U U11G | 1.94
135 | U7A U8G G9U U10C C12A C13U | 1.35
136 | U7A U8G G9U U10C C12A C13A | 1.46
137 | U7A U8G G9U U10C C12A C13G | 1.01
138 | U7A U8G U10A C12A | 1.23
139 | U7A U8G U10A C12U | 1.17
140 | U7A U8G U10A C12G | 1.22
141 | U7A U8G G9U U10C C12G C13G | 1.16
142 | U7A U8G G9U U10C C12G C13U | 1.68
143 | U7A U8G G9U U10C C12G C13A | 1.39
144 | U7A U8G G9U U10A U11G C12G C13G | 1.14

Row | Variant | aptazyme ON/OFF ratio
145 | U7A U8G G9U U10A U11G C12G C13A | 1.05
146 | U7A U8G G9U U10A U11G C12G C13U | 1.52
147 | U7A U8G G9U U11G C12A C13U | 1.2
148 | U7A U8G G9U U11G C12A C13A | 1.26
149 | U7A U8G G9U U11G C12A C13G | 1.27
150 | U7A U8G G9U U11G C12A | 1.38
151 | U7A U8G G9U U11G C12G | 1.56
152 | U7A U8G G9U U11G C12U | 1.26
153 | U7A U8G G9U U10G C13U | 1.23
154 | U7A U8G G9U U10G C13G | 1.32
155 | U7A U8G G9U U10G C13A | 1.3
156 | U7A U8G G9U U10C U11G C12G | 1.45
157 | U7A U8G G9U U10C U11G C12A | 1.5
158 | U7A U8G G9U U10C U11G C12U | 1.21
159 | U7A U8G G9U U10G U11A C12A | 1.74
160 | U7A U8G G9U U10G U11A C12U | 1.27
161 | U7A U8G G9U U10G U11A C12G | 1.46
162 | U7A U8G G9U U10G U11G C12U | 1.36
163 | U7A U8G G9U U10G U11G C12G | 1.35
164 | U7A U8G G9U U10G U11G C12A | 1.38
165 | U7A U8G G9U U10C U11A C12G | 1.61
166 | U7A U8G G9U U10C U11A C12U | 1.72
167 | U7A U8G G9U U10C U11A C12A | 1.63
